35 molecules from patent US20190177408A1 (SUZHOU CONNECT BIOPHARMACEUTICALS, published 2019) can be followed below.

B1: L1000H1007 (antibody, V domains shown)
VH: EVQLVQSGGGLVHPGGSLRLSCAGSGFTFSRNAMFWVRQAPGKGLEWVSGIGTGGATSYADSVKGRFTISRDNAKNSLYLQMNSLRAEDMAVYYCARGRYYFDYWGQGTLVTVSS
VL: not shown
notes: human kappa
B2: L1000H1027 (antibody, V domains shown)
VH: B1 VH with Q6E, G24A, M90T, D103P, Y104W
VL: not shown
notes: human kappa
B3: L1000H1031 (antibody, V domains shown)
VH: B1 VH with Q6E, H13Q, G24A, M90T
VL: not shown
notes: human kappa
B4: L1017H1000 (antibody, V domains shown)
VH: B1 VH with S58N
VL: not shown
notes: human kappa
B5: L1000H1020 (antibody, V domains shown)
VH: B1 VH with D103P, Y104W
VL: not shown
notes: human kappa
B6: L1012H1029 (antibody, V domains shown)
VH: B1 VH with Q6E, H13Q, G24A, D103P, Y104W
VL: not shown
notes: human kappa
B7: L1000H1037 (antibody, V domains shown)
VH: B1 VH with S58N, N73E
VL: not shown
notes: human kappa
B8: L1000H1024 (antibody, V domains shown)
VH: B1 VH with H13Q, M90T, D103P, Y104W
VL: not shown
notes: human kappa
B9: L1013H1000 (antibody, V domains shown)
VH: B1 VH with S58N
VL: EIVLTQSPGTLSLSPGERATLSCRASQSVSNSYLAWYQQKPGQAPRLLIFGASSRATGIPDRFSGSGSGTDFTLTISRLEPEDFAVYYCQQYDHSPPWTFGQGTKVEIK
notes: human kappa
B10: L1000H1012 (antibody, V domains shown)
VH: B1 VH with M90T
VL: not shown
notes: human kappa
B11: L1011H1000 (antibody, V domains shown)
VH: B1 VH with S58N
VL: B9 VL with T57P, D93G, H94S
notes: human kappa
B12: L1020H1000 (antibody, V domains shown)
VH: B1 VH with S58N
VL: B9 VL with N31S, F50Y, P96A, P97G
notes: human kappa
B13: L1020H1007 (antibody, V domains shown)
VH: B1 VH
VL: B9 VL with N31S, F50Y, P96A, P97G
notes: human kappa
B14: L1016H1000 (antibody, V domains shown)
VH: B1 VH with S58N
VL: B9 VL with N31S
notes: human kappa
B15: L1000H1025 (antibody, V domains shown)
VH: B1 VH with G24A, M90T, D103P, Y104W
VL: not shown
notes: human kappa
B16: L1020H1016 (antibody, V domains shown)
VH: B1 VH with S58N, D103P, Y104W
VL: B9 VL with N31S, F50Y, P96A, P97G
notes: human kappa
B17: L1000H1028 (antibody, V domains shown)
VH: B1 VH with H13Q, G24A, M90T, D103P, Y104W
VL: not shown
notes: human kappa
B18: L1000H1022 (antibody, V domains shown)
VH: B1 VH with M90T, D103P, Y104W
VL: not shown
notes: human kappa
B19: L1015H1000 (antibody, V domains shown)
VH: B1 VH with S58N
VL: B9 VL with N31S, T57P
notes: human kappa
B20: L1000H1008 (antibody, V domains shown)
VH: B1 VH with S58N, M90T
VL: not shown
notes: human kappa
B21: L1012H1031 (antibody, V domains shown)
VH: B1 VH with Q6E, H13Q, G24A, M90T
VL: not shown
notes: human kappa
B22: L1000H1036 (antibody, V domains shown)
VH: B1 VH with K43E, S58N
VL: not shown
notes: human kappa
B23: L1007H1000 (antibody, V domains shown)
VH: B1 VH with S58N
VL: not shown
notes: human kappa
B24: L1000H1013 (antibody, V domains shown)
VH: B1 VH with Q6E, G24A, S58N
VL: not shown
notes: human kappa
B25: L1012H1000 (antibody, V domains shown)
VH: B1 VH with S58N
VL: not shown
notes: human kappa
B26: L1000H1021 (antibody, V domains shown)
VH: B1 VH with S58N, M90T, D103P, Y104W
VL: not shown
notes: human kappa
B27: L1012H1007 (antibody, V domains shown)
VH: B1 VH
VL: not shown
notes: human kappa
B28: L1000H1030 (antibody, V domains shown)
VH: B1 VH with Q6E, H13Q, G24A, S58N, M90T, D103P, Y104W
VL: not shown
notes: human kappa
B29: L1000H1029 (antibody, V domains shown)
VH: B1 VH with Q6E, H13Q, G24A, D103P, Y104W
VL: not shown
notes: human kappa
B30: L1000H1010 (antibody, V domains shown)
VH: B1 VH with H13Q, S58N
VL: not shown
notes: human kappa
B31: L1008H1000 (antibody, V domains shown)
VH: B1 VH with S58N
VL: not shown
notes: human kappa
B32: L1000H1035 (antibody, V domains shown)
VH: B1 VH with F35H, S58N
VL: not shown
notes: human kappa
B33: L1010H1000 (antibody, V domains shown)
VH: B1 VH with S58N
VL: not shown
notes: human kappa
B34: L1012H1020 (antibody, V domains shown)
VH: B1 VH with D103P, Y104W
VL: not shown
notes: human kappa
B35: L1000H1026 (antibody, V domains shown)
VH: B1 VH with Q6E, H13Q, M90T, D103P, Y104W
VL: not shown
notes: human kappa

Numbering of substitutions follows the chain as printed.

The target of the experiment is T1, human soluble IL-4Rα (sIL-4Rα) (human, UniProt P24394 26-232).
T1 construct: Bought reagent (PEPRO TECH, Catalog Number 200-04R); also called shIL-4Rα; soluble hIL-4 Rα
T1 sequence: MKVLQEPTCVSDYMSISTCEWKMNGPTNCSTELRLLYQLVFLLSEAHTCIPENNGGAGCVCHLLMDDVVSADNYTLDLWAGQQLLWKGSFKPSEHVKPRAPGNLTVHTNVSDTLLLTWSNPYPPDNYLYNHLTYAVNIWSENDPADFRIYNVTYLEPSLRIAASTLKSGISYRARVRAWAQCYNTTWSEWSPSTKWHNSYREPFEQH
Put plainly: ELISA, coated sIL-4Rα, culture supernatant. Here is the method:
100 μl of 100 μg/ml sIL-4Rα solution was added to 9.90 ml of PBS, mixed up and down, and then an antigen coating buffer of 1.0 μg/ml was obtained. The prepared antigen coating buffer was added to a 96-well ELISA plate (Corning) with a volume of 100 μl per well. The 96-well ELISA plate was incubated overnight in a refrigerator at 4° C. On the next day; the solution therein was discarded; and PBS containing 2% BSA was added to the 96-well ELISA plate row by row with a volume of 300 μl per well. The 96-well ELISA plate was incubated for 2 hours in a refrigerator at 4° C., Then the PBS containing 2% BSA was discarded and the plate was washed 3 times with PBST. Diluted antibodies to be tested were sequentially added to the corresponding wells, while the normal cell culture supernatants, as negative control samples, were added too. Three duplicate wells were made for each sample with a volume of 100 μl per well. The ELISA plate was wrapped with preservative film (or covered) and incubated for 1 h at […] in a constant temperature incubator. Subsequently, the 96-well ELISA plate was taken out, and the solution therein was discarded. After washing with PBST for 3 times, TMB solution (Solarbio, Catalog Number: PR1200) was added to the 96-well ELISA plate row by row with a volume of 100 μl per well. The 96-well ELISA plate was placed at room temperature for 5 minutes, and 2 M H2SO4 solution was added in immediately to terminate the reaction. The 96-well ELISA plate was placed in flexstation 3 (Molecular Devices), the values of OD450 were read, and the data were collected, calculated and analyzed. Results were expressed relative to the affinity of control antibody 1.
(In general: An ELISA detects its analyte on a solid surface through an enzyme-linked reagent.)
In the case of B1, the “OD 450/OD450Control antibody 1” value was 0.37.
As for B2, the figure is 0.44.
As for B3, the figure is 1.14.
The same measure for B4: 0.49.
As for B5, the “OD 450/OD450Control antibody 1” value turned out to be 0.23.
As for B6, the figure is 0.11; as for B7, -0.01.
Consider B8, for which the “OD 450/OD450Control antibody 1” value was determined as 0.26.
Consider B9, for which the “OD 450/OD450Control antibody 1” value was 0.24.
As for B10, the figure is 0.18.
Turning to B11, the “OD 450/OD450Control antibody 1” value stood at 0.9.
In the case of B12, the “OD 450/OD450Control antibody 1” value came out at 2.27.
The same measure for B13: 0.4; for B14: 0.27.
Turning to B15, the “OD 450/OD450Control antibody 1” value amounted to 0.21.
As for B16, the figure is 0.8.
Regarding B17, the “OD 450/OD450Control antibody 1” value stood at 0.33.
As to B18, the “OD 450/OD450Control antibody 1” value worked out at 0.18.
Take B19: the “OD 450/OD450Control antibody 1” value was 0.67.
As for B20, the figure is 0.21; as for B21, 0.16.
B22: the “OD 450/OD450Control antibody 1” value is 0.1.
As for B23, the “OD 450/OD450Control antibody 1” value came out at 0.8.
Consider B24, for which the “OD 450/OD450Control antibody 1” value was found to be 0.38.
Regarding B25, the “OD 450/OD450Control antibody 1” value was found to be 1.22.
Take B26: the “OD 450/OD450Control antibody 1” value worked out at 0.35.
As for B27, the figure is 0.4; as for B28, 0.2; as for B29, 0.8.
The same measure for B30: 0.11.
As for B31, the figure is 0.9; as for B32, 0.22; as for B33, 1.
With B34, the “OD 450/OD450Control antibody 1” value amounted to 0.11.
Consider B35, for which the “OD 450/OD450Control antibody 1” value amounted to 0.11.
